The target of assay [1] is Cagβ-AAD1 (all-alpha domain of Cagβ, residues 289–488) (Helicobacter pylori 26695) (UniProt O25260). Kind of assay: ITC; ITC-200 at 25 °C; 20 mM Tris pH 8.0, 150 mM NaCl; Cagβ proteins (20 µM) in the cell, CagZ proteins or peptides (200 µM) in the syringe. (In ITC the heat of successive injections is recorded.)
Assay [2] has as its target Cagβ-AAD1 E314A (Helicobacter pylori 26695). The assay is described as above.
Assay [3] has as its target Cagβ-AAD1 D356A (Helicobacter pylori 26695). The description is as above.
In assay [4] the target is Cagβ-AAD1 R375A (Helicobacter pylori 26695). The description is as above.
The target in assay [5] is Cagβ-AAD1 N365A (Helicobacter pylori 26695). The description is as above.
For assay [6], the target named is Cagβ-AAD1 F358A (Helicobacter pylori 26695). The description is as above.
For assay [7], the target named is Cagβ1 (soluble region of Cagβ, residues 166–748) (Helicobacter pylori 26695) (UniProt O25260). As to the kind of experiment: mass photometry; Cagβ1/CagZ complex (co-expressed, co-purified) at 0.06 µM; OneMP instrument (Refeyn).
In assay [8] the target is Cagβ-AAD1 S453A (Helicobacter pylori 26695). As to the kind of experiment: ITC; ITC-200 at 25 °C; 20 mM Tris pH 8.0, 150 mM NaCl; Cagβ proteins (20 µM) in the cell, CagZ proteins or peptides (200 µM) in the syringe.
For assay [9], the target named is Cagβ-AAD1 D335A (Helicobacter pylori 26695). The description is as above.
For assay [10], the target named is Cagβ-AAD1 T338A (Helicobacter pylori 26695). Described as above.
Assay [11] deals with Cagβ-AAD1 E462A (Helicobacter pylori 26695). The assay is described as above.
Assay [12] has as its target Cagβ-AAD1 D309A (Helicobacter pylori 26695). The assay is described as above.
Assay [13] concerns the target Cagβ-AAD1 E396A (Helicobacter pylori 26695). The description is as above.
Assay [14] has as its target Cagβ-AAD1 K388A (Helicobacter pylori 26695). Described as above.
Assay [15] deals with Cagβ-AAD1 N449A (Helicobacter pylori 26695). Described as above.
Assay [16] has as its target Cagβ-AAD1 Y374F (Helicobacter pylori 26695). The assay is described as above.
In assay [17] the target is Cagβ-AAD1 N361A (Helicobacter pylori 26695). The assay is described as above.
In assay [18] the target is Cagβ-AAD1 N452A (Helicobacter pylori 26695). The assay is described as above.
The target in assay [19] is Cagβ-AAD1 E350A (Helicobacter pylori 26695). The description is as above.
Assay [20] deals with T1, Cagβ-AAD1 (all-alpha domain of Cagβ, residues 289–488) (Helicobacter pylori 26695, UniProt O25260 289-488).
T1 construct: Cagβ (HP0524, Cag5) of H. pylori 26695, residues 289-488, holding the all-alpha domain (AAD); source: E. coli BL21 star (DE3), purified (Ni-NTA, TEV cleavage, second Ni-NTA, SEC); not shown: His6, N-terminal, cleaved; TrxA, N-terminal, cleaved
T1 sequence: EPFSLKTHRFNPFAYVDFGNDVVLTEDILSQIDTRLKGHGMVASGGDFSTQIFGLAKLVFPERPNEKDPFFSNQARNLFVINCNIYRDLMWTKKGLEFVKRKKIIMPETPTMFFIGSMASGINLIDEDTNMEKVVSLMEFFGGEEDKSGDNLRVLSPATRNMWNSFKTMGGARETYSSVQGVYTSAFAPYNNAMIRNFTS
Described as above. As to conditions: both partners purified.

The target of assay [21] is T2, Cagβ-AAD1 (residues 289-488), wild type (Helicobacter pylori 26695, UniProt O25260 289-488).
T2 construct: Cagβ (HP0524, Cag5) of Helicobacter pylori 26695, residues 289-488, holds the all-alpha domain (AAD); also called Cagβ-AAD1_WT; Cagβ-AAD1 (289-488); source: E. coli BL21 star (DE3), purified (Ni-NTA, TEV, second Ni-NTA, SEC); not shown: His6, N-terminal, cleaved; TrxA, N-terminal, cleaved
T2 sequence: T1 sequence
As to the kind of experiment: ITC; ITC-200, 25 °C, 20 mM Tris pH 8.0, 150 mM NaCl; Cagβ proteins (20 µM) in the cell, CagZ proteins (200 µM) in the syringe. The following applies: both partners purified.

Assay [22] deals with T3, CagZ (residues 2-199), wild type (Helicobacter pylori 26695, UniProt B5Z6P9 2-199).
T3 construct: CagZ of Helicobacter pylori 26695, residues 2-199; also called CagZ-WT; source: E. coli BL21 star (DE3), purified (Ni-NTA, TEV, second Ni-NTA, SEC); not shown: His6, N-terminal, cleaved; TrxA, N-terminal, cleaved
T3 sequence: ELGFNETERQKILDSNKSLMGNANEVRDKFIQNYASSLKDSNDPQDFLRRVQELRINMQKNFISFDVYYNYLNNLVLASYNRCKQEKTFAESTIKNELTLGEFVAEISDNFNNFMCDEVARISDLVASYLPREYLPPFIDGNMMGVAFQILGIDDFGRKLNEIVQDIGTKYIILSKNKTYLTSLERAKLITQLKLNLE
The description is as above. As to conditions: both partners purified.

Among the data in article PMC9886983, “Mechanism of regulation of the Helicobacter pylori Cagβ ATPase by CagZ” (Nature Communications, 2023) are Kd, percent of the protein in the 1:1 complex and stoichiometry N values, retold here.

Substitutions are numbered along the chain they refer to. Names may count otherwise.

For the molecule CagZ E199A (natural protein), in assay [1], the Kd was 40 nM. In other words, the double-digit nanomolar range. CagZ K85A (natural protein) returned a Kd in assay [2] of 80 nM. Still for that read-out and setting: for CagZ Y81F (natural protein) the value was 90 nM.

In [3], CagZ Q150A (natural protein) registered a Kd of 50 nM.

As to CagZ R187A (natural protein), in [1], the Kd worked out at 16900 nM. This lies in the double-digit micromolar range. Still for that read-out and setting: the value for CagZ S184A (natural protein) was 70 nM. Take CagZ Y181A (natural protein): the Kd in [1] turned out to be 560 nM; in assay [4], 35700 nM.

As for CagZ N162A (natural protein), the Kd in assay [5] was found to be 40 nM. That is a double-digit nanomolar value. CagZ F149A (natural protein) came in with a Kd in assay [6] of 410 nM.

As to CagZ N178A (natural protein), the Kd in [1] amounted to 150 nM; in assay [4], 8770 nM. In turn, CagZ N178A/Y181A (natural protein) showed a Kd in [1] of 1500 nM. Consider “CagZ co-expressed with Cagβ1 from pET-28a (natural protein)”, for which, in assay [7], the percent of the protein in the 1:1 complex was found to be 88% and the stoichiometry N came to 1. Molecule CagZ S124A (natural protein) displayed a Kd in assay [8] of 20 nM. This lies in the double-digit nanomolar range. Turning to CagZ T170A (natural protein), the Kd in [9] and in assay [10] was 90 nM each time. For the molecule CagZ R133A (natural protein), the Kd in assay [11] came to 20 nM. Regarding “CagZ (residues 2–199), expressed separately from pET-32a (from UniProt O25261 2-199) (natural protein)”, the Kd in [12] worked out at 70 nM; in [13], 40 nM; in assay [14], 40 nM; in assay [15], 20 nM; in assay [4], 1460 nM; in assay [16], 20 nM. For CagZ D155A (natural protein), the Kd in assay [17] is 60 nM. As to CagZ D125A (natural protein), in [18], the Kd worked out at 60 nM. CagZ R159A (natural protein): the Kd in [19] stood at 40 nM.

B1: CagZ-20 (peptide of the CagZ C-terminal tail, residues 176–195) (peptide)
peptide: SKNKTYLTSLERAKLITQLK
notes: CagZ of H. pylori, C-terminal tail, residues 176-195; source: synthetic peptide (Genscript)
Consider B1, for which, in assay [20], the Kd was 42000 nM.

B2: CagZ (residues 2-199) E199A (natural protein)
chain: T3 sequence with E198A
notes: CagZ of Helicobacter pylori 26695, residues 2-199, with E199A; source: E. coli BL21 star (DE3), purified as the wild type but without TEV protease treatment; not shown: His6, N-terminal, kept; TrxA, N-terminal, kept
Take B2: in assay [21], the Kd is around 50 nM.

B3: CagZ (residues 2–199), expressed separately from pET-32a (natural protein)
chain: T3 sequence with T7A, K17S
notes: CagZ of H. pylori 26695, residues 2-199; also called WT; full-length CagZ; source: E. coli BL21 star (DE3), purified (Ni-NTA, TEV cleavage, second Ni-NTA, SEC); not shown: His6, N-terminal, cleaved; TrxA, N-terminal, cleaved
As to B3, in [20], the Kd came to 90 nM.

B4: Cagβ-AAD3 (residues 299-488) (domain or fragment)
chain: NPFAYVDFGNDVVLTEDILSQIDTRLKGHGMVASGGDFSTQIFGLAKLVFPERPNEKDPFFSNQARNLFVINCNIYRDLMWTKKGLEFVKRKKIIMPETPTMFFIGSMASGINLIDEDTNMEKVVSLMEFFGGEEDKSGDNLRVLSPATRNMWNSFKTMGGARETYSSVQGVYTSAFAPYNNAMIRNFTS
notes: Cagβ (HP0524, Cag5) of Helicobacter pylori 26695, residues 299-488, holds the all-alpha domain (AAD); also called Cagβ-AAD3 (299-488); source: E. coli BL21 star (DE3), purified (Ni-NTA, TEV, second Ni-NTA, SEC); not shown: His6, N-terminal, cleaved; TrxA, N-terminal, cleaved
B4 displayed a Kd in assay [22] of 190 nM. This counts as sub-micromolar.

B5: CagZ-24 (peptide of the CagZ C-terminal tail, residues 176–199) (peptide)
peptide: SKNKTYLTSLERAKLITQLKLNLE
notes: CagZ of H. pylori, C-terminal tail, residues 176-199; source: synthetic peptide (Genscript)
In assay [20], B5 came in with a Kd of 330 nM.

In general, Kd refers to a measure of binding affinity in units of concentration. Broadly, the stoichiometry N is the number of molecules, sites or subunits per partner or assembly.
